Variants at the floor of the assay were thinned out.
B1: TPR 5TU (parent)
chain: GGAUCUUCUCGAUCUAACAAAAAAGACAAAUCUGCCACAAAGCUUGAGAGCAUCUUCGGAUGCAGAGGCGGCAGCCUUCGGUGGCGCGAUAGCGCCAACGUUCUCAACUAUGACACGCAAAACGCGUGCUCCGUUGAAUGGAGUUUAUCAUG

Variants of: B1
Assay: polymerase ribozyme fitness, log enrichment relative to wild type (log ratio); higher = more active; in vitro selection for triplet polymerase activity
Procedure, shortened: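 Frozen incubation at −7 °C formed the core of a single, triplicate in vitro selection round applied to PCR-built, transcribed mutant libraries of each subunit of a heterodimeric triplet polymerase ribozyme. Extended constructs were gel-excised, captured with streptavidin beads and amplified by RT-PCR, and input and output libraries were Illumina-sequenced with a filter of ≥10 input reads and ≥1 read per output. Fitness is the logarithm of genotype enrichment relative to wild-type enrichment, with inverse-variance-weighted replicate averaging, and the logarithm is base 2.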

Row | Variant | polymerase ribozyme fitness (log ratio)
1 | A47U | -0.143
2 | G80C G81C C96A U134A | ≤ -4.2
3 | A26U U55G G88U G94A G124A C125G G126A A142U | ≤ -4.2
4 | G70A C75A C85G G140C | ≤ -4.2
5 | C8A A19C C35G A52C C87G | ≤ -4.2
6 | U9C A52C G67A G74U G86U C93U A115G | ≤ -4.2
7 | U15A A142C A147U | -1.65
8 | C79U G141A | -2.05
9 | A49C A91C | ≤ -4.2
10 | C14U A26G C38U U61G C87A U90A | -3.51
11 | C18G C72G G84C | ≤ -4.2
12 | A41C G67A | -3.93
13 | A21C A52G C125A A142U | ≤ -4.2
14 | U56G C69U A91U C105G U130A | ≤ -4.2
15 | U6G U146A | -1.17
16 | A17U C69G G80C A107U C131U U145G | ≤ -4.2
17 | A23G C103A | -3.88
18 | G74C C79G U82A C93U C108U | ≤ -4.2
19 | A23C C85A G88A A120U U146G | ≤ -4.2
20 | U15A U55A U56A C69U C79U G86A A91U A106C A121G C125U A142C | ≤ -4.2
21 | U31A C69A G92U A115U | -3.26
22 | C14A C72U G81U C95U | -2.42
23 | A29U G48A A49C C87G | ≤ -4.2
24 | G70C G81A C96A C108U A120G A138C | ≤ -4.2

Row | Variant | polymerase ribozyme fitness (log ratio)
25 | C18U U45C A120C | -0.849
26 | C54U C72U U135C | -3.15
27 | G81A C87U U146G | -3.41
28 | G133U | -2.62
29 | C8G A24U A26G A52C C93G | ≤ -4.2
30 | G50C U53C G83A C95G | ≤ -4.2
31 | C85U C114A | -3.52
32 | A26U C76A G86C G92C C95A U144G | ≤ -4.2
33 | A28C G81C G92U C103G | ≤ -4.2
34 | C8A G70C A89G G94C C116A A137G | ≤ -4.2
35 | A40C A47U C85G A89G U148G | ≤ -4.2
36 | C14G A97C A110U A120G U134A | ≤ -4.2
37 | G84A A120U C123A G126U | 0.597
38 | G88C G100A | ≤ -4.2
39 | G86A G141C | -1.01
40 | U44A | -3.72
41 | G58C A107C U130G A137G A147G | ≤ -4.2
42 | A17C A64C G83U | ≤ -4.2
43 | U61A A66C G80A U82G | ≤ -4.2
44 | A21C A39U C95G A113U C149U A150G | ≤ -4.2
45 | C96A C103A U135A U145A | -1.96
46 | A30U C32U G50U C51U U82C A106U A119C | ≤ -4.2
47 | A49U G59C A73G A119C U134G G136A | -3.39
48 | A24G G70C C79U C95A C96G | ≤ -4.2

Row | Variant | polymerase ribozyme fitness (log ratio)
49 | A98U U146G A150U | -0.247
50 | U15G A24G C35U U55A U77G U90G G94A A97U G140U | ≤ -4.2
51 | C8A A17G A98G U144A | ≤ -4.2
52 | U13A A17U U45C G50A G83C C87U U104G G140A | ≤ -4.2
53 | A40C C87G C105G | -4.19
54 | A39G U55A A91C C108A U144C | ≤ -4.2
55 | A26G C36G C57A G94U A142U G152C | ≤ -4.2
56 | A49C C93U G133A | ≤ -4.2
57 | U6A A24C A40U A52U C57A A98U A115C | ≤ -4.2
58 | G70A U82A C87G A89U C103A C105A | ≤ -4.2
59 | A47U G94A | -0.308
60 | G88A A97U U102C | ≤ -4.2
61 | C105U G124A | 0.519
62 | U56A | -0.324
63 | U13G C32G A41C G141U | ≤ -4.2
64 | C96A U135A | -1.48
65 | G83C G92C G100A U104G U146A | ≤ -4.2
66 | G48C A52G | -1.29
67 | G25A U44G C85U A106C | ≤ -4.2
68 | U13C G25A A29C C36G C118A | -4.18
69 | C35U U144G | 1.13
70 | C69A U148A | -4.08
71 | U13A A47G U82G C95G | -3.73
72 | C54U U55G G80U A91G A98C | -3.9
